Results: the supplement of paper PMC9170038

Test system: MS2 coat protein
Experiment: apparent KD of MS2 coat protein; designed switch direction (-1 OFF switch, 1 ON switch): -1; higher = weaker reporter binding
Outline: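 Designed RNA switches sharing common flanks were transcribed on Illumina chips by stalled E. coli RNA polymerase. They were titrated with SNAP-549-labelled MS2 coat protein, from 0.7 or 1.5 nM doubling to 3 µM, in Tris-HCl pH 7.5 buffer with KCl, MgCl2, BSA, DTT, tRNA and Tween-20. Titrations ran without input, with 200 uM small-molecule ligand, or with an oligonucleotide input. The apparent KD of each design is the median over its clusters, after curve-fitting of normalised cluster fluorescence.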

[1] = Eterna round: R95, input ligand: FMN 200 uM
[2] = Eterna round: R95, input ligand: microRNA oligo, concentration not stated
[3] = Eterna round: R95, input ligand: none
[4] = input ligand: microRNA oligo, concentration not stated

Sequence	apparent KD of MS2 coat protein [1]	apparent KD of MS2 coat protein [2]	apparent KD of MS2 coat protein [3]	apparent KD of MS2 coat protein (input ligand: FMN 200 uM)	apparent KD of MS2 coat protein (input ligand: none)	apparent KD of MS2 coat protein [4]
AGAAGUAGUAACCGAUCCUACAUGAGGAUCACCCAUGUAGCUAGACGUGCACGCGAUGCUCGUCAGACUACCAGAUG [salish99_TOv1_r3_027] (puzzle: Sensor v3, turn-off variant 1)	171 nM	136 nM	171 nM	–	–	–
UUUUGCACGCUGCGGUCCUACAUGAGGAUCACCCAUGUGGUCUGGUGGCGUGGGUCGCCGGACUUGGCUCGUCUUGA [salish99_S_TOV1_R5_037] (Eterna round: R97, puzzle: Sensor, turn-off variant 1)	–	–	–	17.5 nM	18.2 nM	–
CAGUACUGAGGAUAUACAUGAGGAUCACCCAUGUGUUCCAGCUGGGAAACUAGCAAAAGUAGAAGGCAGUACUG [salish99_ex3_r3_076] (Eterna round: R96, puzzle: Exclusion 3)	–	–	–	287 nM	21.8 nM	21.4 nM
UUUAAUUUUUUUUUUUUACAAGCUUUUUGCUCGUCUUAUACAUGAGGAUCACCCAUGUAGGUGAGAGAUAAAUUAUC [JMF 15] (puzzle: Sensor v3, turn-off variant 2)	19.6 nM	128 nM	24.4 nM	–	–	–
AAUGCGGACAAAGGAUAUUGCGGUGACCGGCUCGGCGUACCGAGCCUACAUGAGGAUCACCCAUGUAAGAAGGUUGUCGCAAAA [Mat - Exclusion NG 2 - Mod of JL - D75] (Eterna round: R96, puzzle: Exclusion NG 2)	–	–	–	16.6 nM	17.5 nM	13.8 nM
UUACUGCAAGGAUAUACAUGAGGAUCACCCAUGUUAAUGACACGGUGCAGCUUCGACAGUAGAAGGUGCGUGGG [Eternabot (L1) Solution 71] (Eterna round: R97, puzzle: Exclusion 3)	–	–	–	43.2 nM	34.7 nM	–
CUUAGCCUAAAAUCACGCAAGCUUCUUGCUUGUCUUAAGACAUGAGGAUCACCCAUGUCCGGGCUGAACUUAUGGAA [Enonzave] (puzzle: Sensor v3, turn-off variant 2)	17.8 nM	21.1 nM	17.4 nM	–	–	–
UUUGAUAGCACAGGAUAUUGUGAUUUGAGUUGACAAGAAGGGUGUACAUGAGGAUCACCCAUGUAAUGGUUGCCUCGUUGACUU [JR_ExcNG1_Sub006] (Eterna round: R96, puzzle: Exclusion NG 1)	–	–	–	48.8 nM	46.8 nM	36 nM
AUGCGACAUGAGGAUCACCCAUGUGAGGAUAUGCGAAUGCAUACUUCGGUGUGAUAGAGUAGAAGGCGCAGGUA [EX1 #17] (Eterna round: R97, puzzle: Exclusion 1)	–	–	–	472 nM	761 nM	–
GGCAGACAUGAGGAUCACCCAUGUCAGGAUAUGGUGCGAUCGUCGAAAGACGAUAGCACCAGAAGGGACAUGCC [Eli x1 4.03] (Eterna round: R97, puzzle: Exclusion 1)	–	–	–	30.5 nM	19.1 nM	–
CCCGCAGGUUUUUUGCUCGACAUGAGGAUCACCCAUGUUGCGUGGGUUGUGUGUGUGCGGUGUAUAUAUAUGGUCCU [-24.5, -48 kcal, A 14%] (Eterna round: R97, puzzle: Sensor, turn-off variant 1)	–	–	–	305 nM	371 nM	–
CGGGAGGGACAAGCUUUUUGCACGUCUGUUAUUGAUGCUACAUGAGGAUCACCCAUGUUUAAGAUGUGUGAGGAUGG [JR_SV3TOV2_Sub053] (puzzle: Sensor v3, turn-off variant 2)	26.2 nM	57.6 nM	31.3 nM	–	–	–
UUUUGUCAGGUAUUUAUUAACAUGAGGAUCACCCAUGUGCAUCCAAAAUUACUUUUAGAUCAAGCUCGUCUUAUAUA [JR_STOV1_Sub089] (Eterna round: R97, puzzle: Sensor, turn-off variant 1)	–	–	–	94.3 nM	102 nM	–
UUAUUACAAGCAAGAUCCUACAUGAGGAUCACCCAUGUGCUCGUCUUGUAAGGUACAGUGACGAAAGUCACAGUACC [Sensor 3, v1 - 000] (puzzle: Sensor v3, turn-off variant 1)	24.7 nM	302 nM	24.9 nM	–	–	–
AUCAGCUCGUGAGGAUAUGCACAUGAGGAUCACCCAUGUAAGAUCAAGCUGCUUCGGCAGCAAGUGCAGAAGGCACGAGCUGAU [ENG2/9-A2] (Eterna round: R96, puzzle: Exclusion NG 2)	–	–	–	186 nM	182 nM	132 nM
GACCUCAGUCAGGAUAUAGAUAGCGAUAGCGAAUUAGAAGGGACCACAUGAGGAUCACCCAUGUUAGUAUCAUU [Eternabot (L2) Solution 10] (Eterna round: R97, puzzle: Exclusion 6)	–	–	–	38.9 nM	34.2 nM	–
GCGCUGUCAGGAUAUGUGUGUGUGUGUGAAAGCGCGCGCGCGCAGAAGGGACAUGAGGAUCACCCAUGUGGUGU [-31.2, -30.2 kcal, A 20%, 6bis-6bis] (Eterna round: R97, puzzle: Exclusion 4)	–	–	–	78.7 nM	265 nM	–
AUAGGCCGAGGAUAUGUAGCUAUGAACAUGAGGAUCACCCAUGUGAGUGUCGUGCGUAUUAUAGAAGGCGGUGCAU [EX5 B.14] (Eterna round: R97, puzzle: Exclusion 5)	–	–	–	17 nM	16.1 nM	–
UUUAGUUGGUAAGGAUAUCCUACAUUGUUCUGGCCCGGGCAUGCUACAUGAGGAUCACCCAUGUGGGAGAAGGUGCGUCAUCGC [Design 19] (Eterna round: R96, puzzle: Exclusion NG 2)	–	–	–	51.4 nM	47.9 nM	39.4 nM
ACAUGAGGAUCACCCAUGUCCGGCUGGUCCGUUUCGGCUGUCGAGGAUAUAGUUCGGUGUCCGCGCUAGAAGGCGGGAGCUGGC [Aenatbe mod 61] (Eterna round: R96, puzzle: Exclusion NG 3)	–	–	–	181 nM	98.5 nM	67 nM
CUAGCUUCGGCUAGUACAAGCUUUUUGCUCGUCUUAUUAACAUGAGGAUCACCCAUGUUAAUGAGACCUCAUGUAUU [Sensor v3 - turn-off variant 2 - 9] (Eterna round: R96, puzzle: Sensor v3, turn-off variant 2)	–	–	–	11.5 nM	13.6 nM	12.2 nM
UCAUACGAUGAGGAUAUCUCCGUUAAAGUAUGUAGAGAAGGCGUUACAUGAGGAUCACCCAUGUUUGUGGGCAG [Ex-6 Malc#9] (Eterna round: R96, puzzle: Exclusion 6)	–	–	–	–	–	250 nM
CAUGGAUGUGAGCCGCAUUACAUGAGGAUCACCCAUGUCAACAAGCUUUUUGCUUGUCUUACGCGGCGGCAUCAAAA [Geonso] (puzzle: Sensor v3, turn-off variant 1)	12 nM	9.86 nM	10.3 nM	–	–	–
CGUAGCAAUGUGAGGAUAUCUAGAGCCUCGGCUCUAGAGAAGGCACAUGAGGAUCACCCAUGUGAUUAGCUACG [BmEx4/9-B2] (Eterna round: R97, puzzle: Brourd's mod of Exclusion 4)	–	–	–	597 nM	405 nM	–
AAACAGCAAGGAUAUACGGGCUGUGCUUUUCAUAUCAUACAACAUGAGGAUCACCCAUGUAGAAGGUGCAACAA [Ex2 #3] (Eterna round: R97, puzzle: Exclusion 2)	–	–	–	146 nM	44 nM	–
UCCAGACAUGAGGAUCACCCAUGUGAGGAUAUGAUGCGAUCGUCGAAAGACGAUAGCAUCAGAAGGCACGUAUG [Fiskers Ex 1 - 15] (puzzle: Exclusion 1)	–	32.6 nM	–	–	–	–
GUCAUCAAACAUGGGUUAAACAUGAGGAUCACCCAUGUAUACAAGUUUUUUGCUCGUCUUAUAAUAAGUUUGAUGAC [Antenna 7 - Jieux - Sensor, turn-off variant 1] (Eterna round: R97, puzzle: Sensor, turn-off variant 1)	–	–	–	59.9 nM	66.8 nM	–
CUGCUGGAGCUUUGCUUUGGUCGUACAUGAGGAUCACCCAUGUAGGAUAUGGUAGGCUUUGCUUGCUAGAAGGAUAGAGUGGUC [salish99_ExNG3_r04_609] (Eterna round: R96, puzzle: Exclusion NG 3)	–	–	–	197 nM	88.8 nM	77.5 nM
GGCACCGUAGGAUAUUGUGGUGCAGACAUGAGGAUCACCCAUGUUGAUCCGGGACUGCAGCGAGAAGGACGGGAAA [Eternabot (Original) Solution 2] (Eterna round: R97, puzzle: Exclusion 5)	–	–	–	284 nM	344 nM	–
